Data on one molecule can be found in patent US5599789A, “Method for the treatment of tumours and sarcomas” (Amrad Corporation Limited, priority 1991, dated 1997).

Holding throughout (assay type): cell-based, human
Experiment [1] deals with Ewing's Sarcoma cell line Al-8. Put plainly: Colony formation in semi-solid agar cultures, Al-8 cells. The note with it: Al-8, 1,000 cells; stimulus 100 ng; mean of duplicate colony counts, day 18. The protocol:
(§1) Tumour cells obtained from biopsy and bone marrow specimens from patients with Ewing's Sarcoma were used in these studies. Approval for this project has been obtained from the Ethics Committee of the Royal Children's Hospital.
(§2) Single cell suspensions of tumour cells were obtained by mechanical disruption with an 18G or 21G needle or by pipetting, followed by incubation with dispase II (Boehringer) at a concentration of 1.2 units per ml for 10 minutes at 37° C. Prior to the addition to agar-medium the cells were vortexed gently to prevent clumping.
(§3) Clonal cell lines were grown in Iscove's Modified Dulbecco's Medium (IMDM) supplemented with 10% v/v foetal calf serum (FCS; CSL Limited, Melbourne, Australia) and were passaged either weekly or twice weekly. The characteristics of the Ewing Sarcoma cell lines used herein as described below:
(§4) Cell lines derived from the above primary cell lines (Al and Cu) are identified by an Arabic numeral (e.g. Al-1, Al-5, Al-8 or Cu-1).
(§5) The tumour cells were immobilised in 0.3% w/v agar containing Iscove's Modified Dulbecco's Medium (IMDM) and 10% v/v FCS. […] Cultures were scored for the presence of colonies (>40 cells) or clusters (<40 cells). The number of cells plated per culture ranged from 500 to 10,000 per ml. Colonies were counted on an Olympus dissecting microscope. […]

The subject of experiment [2] is Ewing's Sarcoma cell line Al (uncloned). Put plainly: Colony formation in semi-solid agar cultures, Al (uncloned) cells. The following applies: Al(uncloned), 5,000 cells; stimulus 100 ng; mean of duplicate colony counts, day 18. The protocol:
as §1, §2, §3
The tumour cells were immobilised in 0.3% w/v agar containing Iscove's Modified Dulbecco's Medium (IMDM) and 10% v/v FCS. […] Cultures were scored for the presence of colonies (>40 cells) or clusters (<40 cells). The number of cells plated per culture ranged from 500 to 10,000 per ml. Colonies were counted on an Olympus dissecting microscope.
IL-1, IL-3, IL-4, IL-6, M-CSF, G-CSF, GM-CSF, Stem Cell Factor (SCF), TNFα, TGFα, TGFβ, EGF, aFGF, bFGF, NGF, IGF I, IGF II, PDGF and IFN-γ. […]

Experiment [3] deals with Ewing's Sarcoma cell line Al-1. In words: Colony formation in semi-solid agar cultures, Al-1 cells. The following applies: stimulus 100 ng, mean of duplicate colony counts, day 18. The protocol:
as §1, §2, §3, §4, §5

Experiment [4] relates to Ewing's Sarcoma cell line Cu-1. In words: Colony formation in semi-solid agar cultures, Cu-1 cells. The following applies: Cu-1, 10,000 cells; stimulus 100 ng; mean of duplicate colony counts, day 18. The protocol: as §1, §2, §3, §4, §5

B1: EGF: commercially available growth factor (protein, UniProt P01133 23-1207, looked up)
Pro-epidermal growth factor: PQHWSCPEGTLAGNGNSTCVGPAPFLIFSHGNSIFRIDTEGTNYEQLVVDAGVSVIMDFHYNEKRIYWVDLERQLLQRVFLNGSRQERVCNIEKNVSGMAINWINEEVIWSNQQEGIITVTDMKGNNSHILLSALKYPANVAVDPVERFIFWSSEVAGSLYRADLDGVGVKALLETSEKITAVSLDVLDKRLFWIQYNREGSNSLICSCDYDGGSVHISKHPTQHNLFAMSLFGDRIFYSTWKMKTIWIANKHTGKDMVRINLHSSFVPLGELKVVHPLAQPKAEDDTWEPEQKLCKLRKGNCSSTVCGQDLQSHLCMCAEGYALSRDRKYCEDVNECAFWNHGCTLGCKNTPGSYYCTCPVGFVLLPDGKRCHQLVSCPRNVSECSHDCVLTSEGPLCFCPEGSVLERDGKTCSGCSSPDNGGCSQLCVPLSPVSWECDCFPGYDLQLDEKSCAASGPQPFLLFANSQDIRHMHFDGTDYGTLLSQQMGMVYALDHDPVENKIYFAHTALKWIERANMDGSQRERLIEEGVDVPEGLAVDWIGRRFYWTDRGKSLIGRSDLNGKRSKIITKENISQPRGIAVHPMAKRLFWTDTGINPRIESSSLQGLGRLVIASSDLIWPSGITIDFLTDKLYWCDAKQSVIEMANLDGSKRRRLTQNDVGHPFAVAVFEDYVWFSDWAMPSVMRVNKRTGKDRVRLQGSMLKPSSLVVVHPLAKPGADPCLYQNGGCEHICKKRLGTAWCSCREGFMKASDGKTCLALDGHQLLAGGEVDLKNQVTPLDILSKTRVSEDNITESQHMLVAEIMVSDQDDCAPVGCSMYARCISEGEDATCQCLKGFAGDGKLCSDIDECEMGVPVCPPASSKCINTEGGYVCRCSEGYQGDGIHCLDIDECQLGEHSCGENASCTNTEGGYTCMCAGRLSEPGLICPDSTPPPHLREDDHHYSVRNSDSECPLSHDGYCLHDGVCMYIEALDKYACNCVVGYIGERCQYRDLKWWELRHAGHGQQQKVIVVAVCVVVLVMLLLLSLWGAHYYRTQKLLSKNPKNPYEESSRDVRSRRPADTEDGMSSCPQPWFVVIKEHQDLKNGGQPVAGEDGQAADGSMQPTSWRQEPQLCGMGTEQGCWIPVSSDKGSCPQVMERSFHMPSYGTQTLEGGVEKPHSLLSANPLWQQRALDPPHQMELTQ
modifications: Pro-epidermal growth factor
Consider B1, for which the Colonies/Cultures in experiment [1] came out at 68; in experiment [2] it was 258; in experiment [3] (Al-1, 1,000 cells), 41; in experiment [3] (Al-1, 10,000 cells), 685; in experiment [4], 430.
